The text below walks through data of a protein production outcome set (Wang et al. 2014).

This series is described as follows: label from the status in PepcDB records.
In the case of “MMMHPMNKTNKRDKMEKRNNPSALNIFMSFLKLGMVAFGGPTAIAYVREMVVDEKKWMDEKSFNNGVALAQIIPGASVMQVAAYVGFYLRGIVGAFAAFMAYALPAFLIMLFLTIIYMHVKSLPKTVSIFEALRIIVVSLAANGTLNFSKKNIRTIGDVFLLLISALLFILKFSPFIVIFVSIFIGFLMYRRDITKLSLKIDIPREKLRIYKYVAYLLFGVFLFNLILYMIDSKLFLLSTLMMKVDVFAFGGGYGSVPFMLHEVVDKYNLMDAKTFMDGIALGQITPGPIVITATFVGYIVGGFIGSIISTISVFTPSFIILLSSIPIFDSLKHNTIFKNILHMILVSFVGLLVAVTIRFALLVDWSIQALIIFIVSFLLLYKKYNMLLVVLLSLVLGYLIL”, the protein production entry was “failed”.

“MPKLGMEPIRKAALVKATIVEIGRAGSLDVTVSQIAKRAGMSSALAHHYFGGKEALFIAAMRHVLSLYGAEVRGALLGAETPAARITAILQASFSATNFRREVVGAWLNFYVLAQTAPQARRLLAIYQRRLRSNLLVGLRPLAGERAADLADGLGALIDGLYLREVLKEGPPDSAAAVACARAYLNAHLKECPL”: the protein production result is “failed”. Take “MRFHFFPQPLDRAAWSVFLVALVLTLLLVWGGDRTQAQVREFSWQNRDVGASDRAFILSFNRLMDWSSVATHLRIEPALEGKASWSGRRFAYTLTQPIPYGQTFKVSLEDAVSVPQGKPIKPFQGQFRSRDRVLVYLGSGAEEGRLILYNLTLQQKIFLTPPNLRVFDFQPYPAGDRILFSAGERGEQMGFDPQLYIVTTGLYFNAPDTPRRQAHPAGEISLILDNSEYQNLRFQLANDGSKIVVQRVNRLQPADSSLWLLDENFQPRRLNQAAAGEFRIAPDNQHLIIAQGQGLAIVPLEATNGESNFDFLPQYGMVLDFSRDGRQVAAVKFNPNFSRSLYVVDIFGEHREVLTINGSIIAGQFDPSGQFLYVILTRIEGEGNYREVPYLALLDLKTKELFKLKDFDPQQELYLSLAPDGRTLAIDAVEGREIPAEVDHGDLYSETAPVTPSPRDLVELPPAPPGSPLPPRQLPAQEHQIWLLPLKLDQDKIVVGMPEPLAPGLQARWLP”: the protein production result was “failed”.

In the case of “MTYKVLHVGAGGFGERWCDTFLPSNNSDGTIEVVGLVDIDARALEIGRKHLGLKAKQCFTSAAQAFKAVDADFCTIVIPPALHEGIVDLALERGMHILSEKPIAATMEASVRIADKVRVAGRKMAVTMSHRFDQDKSTLRALVSDEALGRVNTVSCRFAGDYRAYDSWGRFRHEMIHPMLIEGAVHHLDIMADLAGAPCTSIYARSWKPEWAEYKGETDVMVLMDFANGAHGVYEGSSAQATGLNDWTFEYVRVEAASGTAILDHREVEVFHRDPKRIYQKNRHGKGQQVSLLGGKKWKNSLLIEQFCHWLDGGPPMATNVEDNLQSVALIFSAIESARLGQPVKVQEFLQSFRKSASIETQ”, the protein production result is given as “failed”. On to “MKKKILIPVFASVMALSVSSIVNADEVNDSSQNKDDKTNTELNLGEYKEVKYKVAKIKDGVAIKIREEGQVQNIAYSGDEFTVLGTQGEWVKVKVEDGEGWLATRYVDISEGVGYTNADKVNLRKDKSESSEVIEELEKGSSLLVLEDNGDWLKVKDGETEGYVKSSYISDKAPVIEEPQVNPSIDQNVDSTNNNQQNNANTNQQNNNSNVPTANSNAVQAVLNLAYSKQGCPYVWGAEGPNTFDCSGFTQYVYRNAVGKNIPRTSKAQSKYGQTVSKANLQPGDLVFFTTNGSGSVSHVGIYVGGGNMIHSPSTGKTVSVTSINSSYYTARFVTAKRIL”, for which the protein production result is “failed”. Regarding “MRISFVGSGKVATHLAKAFAQQHQIIQIMSRNLPHAEKLAHQVGACAIDNYSQIEQEIDLLVIAVSDQSISSVIQAVHVFVPEQLIVHTSGSTDVKILSDIHSNAGVFYPLQTFSFERDIHWSDTPLLIEAEQANSLSILNALANSLTKRVYHYSSTQRLSLHLAAVFACNFSNYCYDMAKQTVDQAQVDFSLLYPLILETAKKATQHDPVQVQTGPAVRHDHNIVELHQNLLLKANRPDLKDIYQRLSQAIIARHHTQP”, the protein production entry is listed as “failed”. For “MNYSTLTSVLLCLLLGAPAWADHYQVVTEEWAPYNYEENGQLTGMTTEIVRAIMAVSGNDFNIVLAPSMRASHTLQMRPKTIMYSMFRTPEREVLYKWVGPIVEESVHPYQLATAAPVTSLEQLLHAPQITTRHAGLLPDMLQSLGFKNLDKSAAQSVQLYRMLLNGRTAIIIGDTDAGVAYQSRQLNIAPGTLRQIPIELYRSSLYIAFSRDCEDELVASWARALETLRQSGELERIQRRYEQLVGQ”, the protein production entry was “failed”. For “MVAIDYVVIGAGYAGLMCAEALMDKGFKTLVFDMRESGGEIVVFSKLEEFRSKYEKYIEKIEEIRKDIPVDIGTVIKSKPVIINSGNGLKRYEARRVILATGATDTAPVKLNVLSKKIEGIYTLENALREISENNKIGEKVLIAAKDDVIVKLAESQLSDLGYDVEISELTNDIQVIGKERVEGVEISGVRYSCDTLVVYGGRNPFNPLKLRGTPVGNVVTCTYDYSKVEENVKNFLAKILEHHHHHH”, the protein production result is listed as “failed”. Regarding “MKEVRIVFQPGEISVPVAAGTTIMEAMNRSGLGEDFPCGGRGKCGKCRVKVREGREDFTAIDEDHLTAQELAEGVRLACATKINRDMMVEMQSPKKLQHHILIDSAARAFHIHPHLVKVFAEIAQPSLSEHKSDWQRLQESLAGLGCSVHDLQAPLSVLRRLPDTLRESTNRVTTIVYGSQVLGVEQGDTTGTLLGMAFDIGTTTIVGYLLDLNSGRELEVVSTLNPQAQYGGDVISRITFAGKEEKGLDTLHQAVTGAMNRLIGEAVDKAGVSRTQLYGISVAANTTMHHLFLGITPRSIGMSPYVSAINQGLVVAPGELGLEINKAGRVFVLPNIAGFVGADTTAVLLASDLEKSDHVTLILDIGTNGEIVLGSKNRMVACSAAAGPAFEGAQITSGMRGADGAIDHISFDHGLSYTVIGNGRPIGICGSALLDGVAGFVELGMINKRGKFLEPEKLTHPSALKLKDRLIKYEETWAFQLVEAGQTRHGRPILITQNDIRELQLAKGAIAAGVRILQEAMGIECEDIKEVLLAGAFGNYLNPHSACVIGLIPRELESRIKTIGNAAGNGAKIALLSAQEFSRAKDLAGGVSFVELGSYPGFNTIFAQNTYFKLDLEHHHHHH”, the protein production entry is “not failed”.

Turning to “MKNIIPQALLTMPILSTGLQAQEKQPTPNLVFIMADQYRGDAIGCIGKEPVKTPHLDKLASEGINFTNAISSYPVSSPARGMLMTGMYPIGSKVTGNCNSETAPYGVELSQNARCWSDVLKDQGYNMGYIGKWHLDAPYKPYVDTYNNRGKVAWNEWCPPERRHGFDHWIAYGTYDYHLKPMYWNTTAPRDSFYYVNQWGPEYEASKAIEYINGQKDQKQPFALVVSMNPPHTGYELVPDRYKEIYKDLDVEALCKGRPDIPAKGTEMGDYFRNNIRNYYACITGVDENVGRIIEALKQNNLFDNTIVVFTSDHGICMGAHENAGKDIFYEESMRIPMILSWPDQIKPRKSDPLMIAFADLYPTLLSMMGFSKEIPETVQTFDLSNEVLTGKNKKDLVQPYYFVKFDNHATGYRGLRTDRYTYAVHATDGKIDNVILFDRTNDPHEMNNIASQQLKLTHTFNRQLKTWLEKTNDPFAQYIKLKLEHHHHHH”, the protein production result is reported as “not failed”. Regarding “RDSLFNDPNAPVLGNPEGDVTVVEFFDYNCPYCRRAMAEVQGLVDADPNVRLVYREWPILGEGSDFAARAALAARQQGKYEAFHWALMGMSGKANETGVLRIAREVGLDTEQLQRDMEAPEVTAHIAQSMALAQKLGFNGTPSFVVEDALVPGFVEQSQLQDAVDRARKAAAK”, the protein production result is listed as “not failed”.

“GERPEPVFDAFADRLAEVAAVPYAMVNFIDENRQFFAGLHAPDGTGSGGRPAADGAEPPDVRRYMARDYGFCPHVVVRRKALVLEDVCDYPRFAGNPVVDEIGIRSYLGAPLIDRTGIALGTICVVDIEPRPWGRAGLETIKALAAELVEQIGRRESGGI”: the protein production entry was “failed”. The same measure for “MATVRLVTRKRAGRSSRPSAASLPARSAVERNSSGPLLSKSRYVRIMAARRSSSLRQQQGRLEWGGRSRPVELATRSFEKQGDATAFFKAMLNRHQPGERVSDEDGLDVAALLERHTEYVAKVGCGVSHFQVMMTEHGTQCFRIIRTDGSGTDFSYPHCISQRPPSRKQEVAQAFRRAVRFDLYKARDNLFATHSGSDGLVSCAVTGERIAQDEGHMDHRPPMTFEVIVTTFLCGRGLSLDNVPLTTGKDDQVSPEVTDNALSEAFRAYHAGIARLDFVRNTVNLAQASRHRLKDGRITLTG”: “failed”; for “MAAKKPLFEVIASKIKDSINRDEYKTGMLMPNETALQEIYSSSRTTIRRAVDLLVEEGLVVRKNGVGLYVQPKLTAQNILEMTGVMKNDTNENLKKDIKDFYIRKAGKFYAEIFGMKENELVYSIKFVQKSEHGATLDRLILPLGLYPDLQAKDFQIINIIELVNSGKYKLFELEQELQLILAGNEQIKNMHLNENDPVFKLSSVFYAENDMPIAIQYHYEDAESTKYVVDFN”: “not failed”; for “MGKGKSAIESQIRMLKLAKEIVEEVASSFPNLEEVYIFGSRARGDYLDTSDIDILFVFKGIKEMNVFDRMYMVSRFIRGNVDYIVLDEGEKDRVKDKVLFWKREKGFVLL”: “not failed”. Regarding “MKIGIIGAGFVARAIAKLALQNGHQVMLSNSRDPQSLFSLRPMIGCDIGTATQAALFGDIIVIAVPFTAIDKLPEQALQGKSVIDAVNYYTERDGKVAALDTRSTTTSELLAGYLPGAKITKAFNAITMTQLERDGLPAGSAHRRALPLAGDHEQEKTIVAELYDAFGFDVVDAGKLSEGWRFERNMPSYCVRMTKAELTTALALSSRLEHHHHHH”, the protein production result is reported as “not failed”.

With “MRQRTIVCPLIQNDGCYLLCKMADNRGVFPGQWALSGGGVEPGERIEEALRREIREELGEQLILSDITPWTFRDDIRIKTYADGRQEEIYMIYLIFDCVSANRDICINDEFQDYAWVAPAALALYDLNVATRHTLALKGLL”, the protein production entry is “not failed”.

For the sequence “HGEQSYSIGILTDITMTKMYEVLQYKVLEALILERPLDEVMTMLCHEVERIAPEVTASILQSIGQNHLSHLAGPSLPPAYTAVISSVPISPIAGSCGTAAFRKEAVEVQDIATDPLWDNYRHLILPHGLLACWSTPIISSQGQLLGTFAFYYRQIRSPSDFHRQLVKLIANLCSLAMERELSRKQIQHLAFYDS”, the protein production entry was “failed”. “FTNHKGNPMQTERFNKILREAAKDVGIDKEVSSHILRHSHISLLSQQGVSLKAIMDRVGHSDHRTTLSIYSHVTEQMDKDMMNKLEQVKLG”: the protein production result is given as “failed”. For the sequence “GHMYETIRYEVKGQVAWLTLNRPDQLNAFTEQMNAEVTKALKQAGADPNVRCVVITGAGRAFCAGEDLSGVTEEMDHGDVLRSRYAPMMKALHHLEKPVVAAVNGAAAGAGMSLALACDFRLLSEKASFAPAFIHVGLVPDAGHLYYLPRLVGRAKALELAVLGEKVTAEEAAALGLATKVIPLSDWEEEVKQFAERLSAMPTKAIGLIKRLLRESEETTFDRYLEREAECQRIAGLTSDHREGVKAFFEKRKPLFQGN”, the protein production result is listed as “not failed”.

As for “MSSSVVAETVPSGSGSWFSHFKATLVLGIPLIGAQLAQLGIHTTDMVIVGQLGAEKLAAMVLAGQFFFVVFIFGSGFSVAVVPMVAQAYGQGDATSARRSLRMGMWVAIAYWLLALPIFFNAERILVYLGQNPNVAALTGHYLAIAKFGLLPALLFYVLRGLVSAIGRAGIILYVTIIMLVMNGLMAYVLVFGHFGLPAMGMNGAAVVAVIVNAFSFIFIVAYVQTREETKKYELFVRFWRPDWHALFEVLRLGLPISITILAEVTLFAAASILMGQIGTVQLAAHGIALQLASIAFMIPLGLSQAATVRVGVARGQGDFKNLIRASIMIYAIACGIALCGGILFAAVPEFLAKWFLDPKLPEAAEVLAYASSLVVIAGIFQLVDGIQAVTAGLLRGLKDARIPAMLALISYWPIGLALAWTMAFPLGFGGRGVWFGFVIGLSTAAVLLTVRFVLLVKREMKTAR”, the protein production result is on record as “failed”. For “MIITKNISLPELYQEWLDLKIMPSNRSDVTKKKYLSRKVTLEKLFGDKPISQIRPSEYQRIMNNYGQRVSRNFLGRLNTGVKQSLQMAIADKVMIEDFTQNVELFSTVKLEHHHHHH”, the protein production result is listed as “not failed”.
